This note sets out measurements from patent US7838288B2, “Modulators of odorant receptors” (Duke University, priority 2004, dated 2010).

The subject of test [1] is MOR203-1. Briefly: Co-immunoprecipitation with HA-tagged MOR203-1. The format is binding, mouse. To be noted: Flag-tagged protein, 293T cells, HA-MOR203-1 precipitated. The procedure: Given the ability of REEP and/or RTP to promote cell-surface expression of ORs, it was hypothesized that they may also interact with OR proteins. This was assessed using co-immunoprecipitation assays. HA-tagged MOR203-1 and Flag-tagged REEP1, RTP1 or ICAP-1, a negative control (see, e.g., Zawistowski, J. S., et al. (2002) Hum Mol Genet. 11, 389-396; herein incorporated by reference in its entirety) were transfected in 293T cells. After the cell extracts were precipitated with anti-Flag antibodies, proteins were eluted in SDS-sample buffer at room temperature whereupon western blotting analysis was performed to detect the OR proteins. OR proteins were detected as high molecular weight bands after precipitation of REEP1 or RTP1 (see FIG. 7B, lanes 1 and 2). […] The present invention is not limited to a particular mechanism. Indeed, an understanding of the mechanism is not necessary to practice the present invention.
293T cells in 100 mm dishes were transfected with ORs, REEP1, and/or RTP1 cDNAs. 16 hours after transfection, cells were lysed in lysis buffer (50 mM Tris (7.4), 150 mM NaCl, 1% NP-40, 0.5 mM PMSF, 2 mM Benzamidene, 0.5 ug/ml Leupeptin, 1.4 ug/ml pepstatin A, 2.4 ug/ml chymostatin, 15 ug/ml aprotinin, 1 mM sodium orthovanadate). The lysis were incubated with anti-Flag M2 affinity gel (Sigma) or anti-HA affinity matrix (Roche) for 2 hours at 4 degrees C. and washed with lysis buffer. Subsequently, the bound proteins were eluted by incubation with SDS sample buffer at room temperature for 2 hours. SDS-PAGE and western blotting were performed according to Mini-Protean 3 Cell (Bio-Rad) instruction manual. ECL (Amersham) was used for detecting proteins on membranes.

The subject of test [2] is MOR203-1. Nature of the test: Living-cell staining of cell-surface MOR203-1. To be noted: accessory protein co-transfected in 293T cells. The format is cell-based, mouse. An excerpt: After hypothesizing that mammalian ORs require accessory protein(s) for functional cell surface expression, a search was instituted for detecting such molecule(s). Long-SAGE (serial analysis of gene expression) libraries (see, e.g., Saha, S., et al., (2002) Nat Biotechnol 20, 508-512; herein incorporated by reference in its entirety) were constructed from single olfactory neurons as well as neurons from the vomeronasal organ and genes were collected that are expressed by these neurons. To identify candidate genes expressed by the olfactory neurons Digital Differential Display (see, e.g., http://www, followed by, .ncbi.nlm.nih.gov/UniGene/info_ddd.shtml) was also used. Candidate genes were investigated for ORFs that encode membrane associated proteins. Genes were selected with similarities to known chaperones and cloned the cDNAs from olfactory epithelium cDNAs. The mRNA expression of each gene was verified by in situ hybridization. After isolating and subcloning into mammalian expression vectors, each cDNA together with a mouse OR (MOR203-1) tagged with a 20 N-terminal amino acids of rhodopsin (Rho-tag), was transfected into 293T cells. We measured whether these clones had any effect on the cell-surface expression of ORs by staining living cells using antibodies against the Rho-tag (see, e.g., Laird, D. W., and Molday, R. S. (1988) Invest Opthalmol Vis Sci 29, 419-428; herein incorporated by reference in its entirety). When MOR203-1 was transfected alone, antibody staining detected only faint cell-surface expression in less than 1% of the cells. A schematic diagram outlining the screening procedure utilized with the present invention is provided at FIG. 1.
293T cells were maintained in minimal essential medium containing 10% fetal bovine serum (M10). Lipofectamine 2000 (Invitrogen) was used for transfection. In live-cell staining, 16 hours after transfection, cells were incubated in M10 containing anti rhodopsin antibody, 4D2 (see, e.g., Laird, D. W., and Molday, R. S. (1988) Invest Opthalmol V is Sci 29, 419-428; herein incorporated by reference in its entirety) and 15 mM NaN3 at 4 degrees C. for 1 hour. After washing, cells were incubated with Cy3-conjugated anti mouse IgG (Jackson Immunologicals), washed and mounted. For FACS analysis, 4D2 and PE-conjugated anti mouse IgG (Jackson Immunologicals) were used to monitor the Rho tagged receptor expression. Anti HA rabbit antibodies (Sigma) and Alexa 488 conjugated anti rabbit IgG (Molecular Probes) was used to stain the HA-β2 adrenergic receptor. To establish the Hana3a cells, 1 ug/ml of puromycin was used for selection. 96 colonies were picked and assayed using luciferase assay using OREG.

In test [3] the target is T1, mouse odorant receptor OREG (Mus musculus, UniProt Q920P2).
T1 construct: expressed in transfected cells; host or cells: 293T cells (with or without co-transfected REEP1/RTP1/RTP2) and Hana3A cells (293T stably expressing mouse REEP1, RTP1, RTP2, Galpha-olf)
T1 sequence (Q920P2 1-313): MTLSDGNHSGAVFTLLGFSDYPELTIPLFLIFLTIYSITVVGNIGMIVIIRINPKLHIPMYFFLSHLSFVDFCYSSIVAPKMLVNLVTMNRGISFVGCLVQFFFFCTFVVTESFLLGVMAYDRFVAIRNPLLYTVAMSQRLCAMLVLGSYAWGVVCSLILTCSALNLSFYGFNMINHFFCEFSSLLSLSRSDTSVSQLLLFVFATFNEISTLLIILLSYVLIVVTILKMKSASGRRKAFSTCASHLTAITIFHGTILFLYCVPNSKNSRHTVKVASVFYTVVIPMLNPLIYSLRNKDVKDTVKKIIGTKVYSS
Briefly: CRE-luciferase reporter gene assay, OREG. It counts as cell-based. To be noted: 293T cells; compared to OR alone or control pCI. An excerpt:
Poor odorant evoked signaling activity in heterologous cell culture systems expressing ORs has been attributed to the poor cell surface expression of ORs. The identification of REEP and/or RTP allowed a direct assessment of this issue. A luciferase reporter gene assay was employed in which a cAMP responsive element (CRE) mediated luciferase gene expression (see FIG. 8A). Because OR activation leads to an increase in cAMP, activation of the mouse odorant receptor OREG by its ligand eugenol was measured in the presence and absence of REEP and/or RTP (see, e.g., Kajiya, K., et al. (2001) J Neurosci 21, 6018-6025; Touhara, K., et al., (1999) Proc Natl Acad Sci USA 96, 4040-4045; each herein incorporated by reference in their entireties). As reported previously, eugenol increased levels of OREG dependent luciferase activity (see, e.g., Katada, S., et al. (2003) Biochem Biophys Res Commun 305, 964-969; herein incorporated by reference in its entirety).
To facilitate analysis of odorant-OR interactions, 293T cell lines were established which stably express REEP1, RTP1, RTP2 and Gαolf, the G protein alpha subunit that couples to OR (see, e.g., Belluscio, L., et al. (1998) Neuron 20, 69-81; Jones, D. T., and Reed, R. R. (1989). Science 244, 790-795; each herein incorporated by reference in their entireties). To establish such cells, linearized expression vectors containing mouse REEP1, RTP1, RTP2 and Gαolf ORFs were transfected into 293T cells with PGK-Pac (puromycin resistant gene) (see, e.g., Watanabe, S., et al. (1995) Biochem Biophys Res Commun 213, 130-137; herein incorporated by reference in its entirety). […] Enhanced cell-surface expression was observed when OREG or other ORs were transfected in Hana3A cells and immunostained (see FIG. 10). […] Expression of Gαolf alone in 293T cells had little or no effect on OR activation using this assay.
Dual-Glo system (Promega) for luciferase assay was used. CRE-Luciferase (Stratagene) was used to measure the receptor activities. Renilla luciferase driven by constitutively active SV40 promoter (pRL-SV40: Promega) was used as an internal control. Cells were plated on poly-D-lysine coated 96 well plates (BIOCOAT, Beckton Dickinson). After 8 hours (for experiments shown in FIGS. 8B and 8C) or 12 hours (for experiments shown in FIG. 8D and FIG. 11) after transfection, the medium was replaced with CD293 chemically defined medium (Invitrogen) and the plates were incubated for one hour at 37 degrees C. The medium was replaced with 50 ul of odorant solutions dissolved in CD293 and incubated for 10 hours (for experiments shown in FIGS. 8B and 8C) or 4 hours (for experiments shown in FIG. 8D and FIG. 11) at 37 degrees C. The manufacture's protocol for measuring luciferase and Renilla luciferase activities was followed. Luminescence was measured using Wallac Victor 1420 (Perkin-Elmer). Normalized luciferase activity was calculated as [Luc (N)-Luc (0)]/RL (N), where Luc (N)=Luminescent count of a certain well, Luc (0)=Luminescent count without odorant for each OR, and RL (N)=Luminescent count of Renilla Luciferase of each well. For cAMP assays, cells were plated onto 24-well plate. […]. Prism software (Graphpad) was used for data analysis.
A general note: In a reporter assay the amount or activity of a reporter protein is the signal.

B1: RTP1: Receptor Transporting Protein 1; murine SEQ ID NO: 33, human SEQ ID NO: 37 (protein, listed as Mus musculus)
chain: MRIFRPWRLRCPALHLPSFPTFSIKCSLPPLPTDEDMCKSVTTGEWKKVFYEKMEEVKPADSWDFIIDPNLKHNVLAPGWKQYLELHASGRFHCSWCWHTWQSPHVVILFHMYLDKAQRAGSVRMRVFKQLCYECGTARLDESSMLEENIESLVDNLITSLREQCYGERGGHYRIHVASRQDNRRHRGEFCEACQEGIVHWKPSEKLLEEEATTYTFSRAPSPTKPQAETGSGCNFCSIPWCLFWATVLMLIIYLQFSFRTSV
Regarding B1, in test [1], the “co-precipitation with HA-MOR203-1” value is on record as “co-precipitated”. In test [2], the “cell surface expression of MOR203-1” value was “enhanced both the number and staining intensity of cell surface expression”. Further, the “OREG activity by luciferase, accessory protein co-expressed” value in test [3] was “enhanced luciferase activities compared to OR alone”.

B2: REEP1: Receptor Expression Enhancing Protein 1; murine SEQ ID NO: 21, human SEQ ID NO: 27 (protein, listed as Mus musculus)
chain: MVSWIISRLVVLIFGTLYPAYYSYKAVKSKDIKEYVKWMMYWIIFALFTTAETFTDIFLCWFPFYYELKIAFVAWLLSPYTKGSSLLYRKFVHPTLSSKEKEIDDCLVQAKDRSYDALVHFGKRGLNVAATAAVMAASKGQGALSERLRSFSMQDLTTIRGDGAPAPSGPPPPGTGRSSGKHSQPKMSRSASESAGSSGTA
Consider B2, for which the “co-precipitation with HA-MOR203-1” value in test [1] is “co-precipitated”. Moreover, the “cell surface expression of MOR203-1” value in test [2] is “enhanced both the number and staining intensity of cell surface expression”. The “OREG activity by luciferase, accessory protein co-expressed” value in test [3] is “enhanced luciferase activities compared to OR alone”.
